Test results as given in CN114605536A (JIANGSU QUANXIN BIOMEDICINE CO LTD, dated 2022).

Tests used:
食蟹猴TSLP = 食蟹猴TSLP (cynomolgus monkey (食蟹猴), UniProt A0A7N9CAT7 29-159); experiment: cell-based or functional assay
[1] = target: T1, 人胸腺基质淋巴细胞生成素 (Human Thymic Stromal Lymphopoietin, TSLP) (human, UniProt Q969D9 29-159); experiment: SPR, Biacore T200, 25°C, antibody captured on Protein A chip, human TSLP as analyte, 1:1 model, mean of three runs
T1 construct: also called 人TSLP; hTSLP

[2] = target: T1, 人胸腺基质淋巴细胞生成素 (Human Thymic Stromal …); experiment: cell-based or functional assay

食蟹猴TSLP, sequence (A0A7N9CAT7 entry or part of it): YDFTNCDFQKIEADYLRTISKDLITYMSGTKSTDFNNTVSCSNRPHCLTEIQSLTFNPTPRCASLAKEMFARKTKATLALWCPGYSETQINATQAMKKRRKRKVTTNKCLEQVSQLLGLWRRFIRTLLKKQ

| Binder | 抑制食蟹猴TSLP诱导的SW756-STAT5-Luciferase报告基因细胞STAT5磷酸化活性的IC50 (食蟹猴TSLP) | Kd [1] | koff [1] | kon [1] | 抑制人TSLP诱导的PBMC细胞释放TARC(CCL17)活性的IC50 [2] | 抑制人TSLP诱导的SW756-STAT5-Luciferase报告基因细胞STAT5磷酸化活性的IC50 [2] | 抑制人TSLP诱导的全血释放TARC(CCL17)活性的IC50 [2] |
| --- | --- | --- | --- | --- | --- | --- | --- |
| Tezepelumab (antibody, V domains shown) VH: QMQLVESGGGVVQPGRSLRLSCAASGFTFRTYGMHWVRQAPGKGLEWVAVIWYDGSNKHYADSVKGRFTITRDNSKNTLNLQMNSLRAEDTAVYYCARAPQWELVHEAFDIWGQGTMVTVSS VL: SYVLTQPPSVSVAPGQTARITCGGNNLGSKSVHWYQQKPGQAPVLVVYDDSDRPSWIPERFSGSNSGNTATLTISRGEAGDEADYYCQVWDSSSDHVVFGGGTKLTVLG | 1.88 ng/mL |  |  |  |  |  |  |
| QX008N (HZD8G2-57) (antibody, V domains shown) VH: EVQLVESGGGLVQPGGSLRLSCAASGFSLSSYYMSWVRQAPGKGLEWVGFISYGGSAYHATWAQGRFTISKDNSKNTLYLQMNSLRAEDTAVYYCAREFRSMTYGAEWGIWGQGTLVTVSS VL: AYQMTQSPSSVSASVGDRVTITCQASESIYDTLAWYQQKPGKAPKLLIYSASSLASGVPSRFSGSGSGTDFTLTISSLQPEDFATYYCQQGYTMPDVDKNPFGGGTKVEIKR | 0.889 ng/mL | 0.0175 nM | 2.99e-05 s⁻¹ | 1.74e+06 M⁻¹ s⁻¹ | 77.1 ng/mL | 0.837 ng/mL | 0.839 ng/mL |
